Laboratory results as given in PMC4466810 (2015).

Target: T1, VEGF-A (VEGF165) (Homo sapiens, UniProt P15692)
T1 chain: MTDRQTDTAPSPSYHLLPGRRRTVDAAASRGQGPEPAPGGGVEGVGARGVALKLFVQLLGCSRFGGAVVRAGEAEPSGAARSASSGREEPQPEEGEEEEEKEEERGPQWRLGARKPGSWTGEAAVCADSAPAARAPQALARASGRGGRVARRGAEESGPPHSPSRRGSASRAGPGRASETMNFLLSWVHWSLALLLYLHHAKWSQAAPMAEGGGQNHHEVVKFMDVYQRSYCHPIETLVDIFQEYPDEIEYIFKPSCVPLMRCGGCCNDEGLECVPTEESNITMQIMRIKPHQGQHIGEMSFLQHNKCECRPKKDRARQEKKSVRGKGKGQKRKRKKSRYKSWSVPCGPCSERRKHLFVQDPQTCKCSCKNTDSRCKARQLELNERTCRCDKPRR
Assay: equilibrium binding assay (ELISA of unbound blocker)

B1: HB-002.1 (VEGFR1 D2-Fc fusion) 129-228 (protein)
chain: SDTGRPFVEMYSEIPEIIHMTEGRELVIPCRVTSPNITVTLKKFPLDTLIPDGKRIIWDSRKGFIISNATYKEIGLLTCEATVNGHLYKTNYLTHRQTNT
modifications: fused to human IgG1 Fc
  Kd: 180 pM
